This is an account of results in patent publication US20250122271A1, “ANTI-DKK1 ANTIBODY, PHARMACEUTICAL COMPOSITION THEREOF, AND USE THEREOF” (SHANGHAI JUNSHI BIOSCIENCES CO., LTD., priority 2022, published 2025).

A word on the IC50: it is the concentration that inhibits the measured activity by half. Low values mean greater potency in that assay, high ones weaker potency in that assay. By EC50 is commonly meant the midpoint of the concentration-response curve.

Where a chain is given by its changes, count along the chain named.

B1: hybridoma antibody 11I18.4 (antibody, V domains shown)
VH: EVQLQQSGPELVKPGASVKIFCKTSGYTFTENTMHWVKQTHGKSLEWIGGINPHKGGTSYNQKFKGKATLTVDKSSSTACMELRSLTSEDSTVYYCARDWLGAMDYWGQGTSVTVSP
VL: ETTVTQSPASLSMAIGEKVTIRCITSTDIDDDMNWYQQKPGEPPKLLISEGNTLRPGVPSRFSSSGYGTDFVFTIENMLSEDVADYYCLQSDNLPYTFGGGTKLEIK
notes: Murine hybridoma antibody
B2: hybridoma antibody 17F14.3 (antibody, V domains shown)
VH: QVQLQQPGAELVKPGASVKMSCKASGYTFTSYNMLWVKQTPGQGLEWIGVIFPGNGDTSYNPKFKGKAALTADKSSSTAYMQLSSLTSEDSAVYYCARDGYPSMDYWGQGTSVTVSS
VL: ETIVTQSPASLSVATGEKVTIRCITSTDIDDDMNWYQQKPGEPPKLLISEGNSLRPGVPSRFSSSGYGTDFVFTIENTLSEDVADYYCLQFNNMPLTFGAGTKLELK
notes: Murine hybridoma antibody
B3: hybridoma antibody 7M2.6 (antibody, V domains shown)
VH: EVQLQQSGPELVKPGASVRISCKTSGYTFTEYTMHWVKQSHGKSLEWIGVIDPSNGDTSYNQKFKGRATLTVDKSSSTAYMDLRSLTSEDSALYYCSSTTGPWFACWGQGTLVTVSA
VL: DIQMTQTTSSLSASLGDRVTINCRASQDISNYLNWYQQKPDGTVKLLIYYKSRLHSGVPTRFSGSGSGTDFSLTISNLVQEDIATYFCQQVHTLPPTFGGGTKLEIK
notes: Murine hybridoma antibody
B4: hybridoma antibody 19O15.6 (antibody, V domains shown)
VH: QIQLVQSGPELKKPGETVKISCKASGYTFTNHGMNWVKQAPGKGLKWMGWINTNTGEPTYADDFKGRFAFSLETSASTAYLQINNLKNEDTATYFCARRGYGFPYYYTMDYWGQGTSVTVSS
VL: QAVVTQESALTTSPGETVTLTCRSSTGAVTTRNYANWVQEKADHLLTGLIGGTKNRAPGVPARFSGSLIGDKAALTITGAQTEDEAKYFCALWYSNRLVFGGGTKLTVL
notes: Murine hybridoma antibody
B5: hybridoma antibody 18J21.1 (antibody, V domains shown)
VH: QVQLKQSGPGLVQPSQSLSITCTVSGFSLTAFDVHWVRQSPGKGLEWLGVIWIGGTTDYNGAFISRLSISKDNSKSQVFFKMNSLQAKDTAIYYCARKRGNYYNMDYWGQGTSVTVAS
VL: B4 VL with A28T, R32T, A42P, L46F, K54N, K87I, R97H, L98W
notes: Murine hybridoma antibody
B6: BHQ-880 (antibody, V domains shown)
VH: QVQLVESGGGLVQPGGSLRLSCAASGFTFSSYWMSWVRQAPGKGLEWVSGISYSGSNTHYADSVKGRFTISRDNSKNTLYLQMNSLRAEDTAVYYCARMGIDLDYWGQGTLVTVSS
VL: DIALTQPASVSGSPGQSITISCTGTSSDVGGFNYVSWYQQHPGKAPKLMIHDGSNRPSGVSNRFSGSKSGNTASLTISGLQAEDEADYYCQSWDVSPITAVFGGGTKLTVLG
B7: chi-2 (antibody, V domains shown)
VH: B1 VH
VL: MSSAQFLGLLLLCFQGTRCDIQMTQTTSSLSASLGDRVTINCRASQDISNYLNWYQQKPDGTVKLLIYYKSRLHSGVPTRFSGSGSGTDFSLTISNLVQEDIATYFCQQVHTLPPTFGGGTKLEIK
B8: chi-29 (antibody, V domains shown)
VH: B5 VH
VL: SQAVVTQESALTTSPGETVTLTCRSSTGTVTTTNYANWVQEKPDHLFTGLIGGTNNRAPGVPARFSGSLIGDKAALTITGAQTEDEAIYFCALWYSNHWVFGGGTKLTVL
B9: chi-22 (antibody, V domains shown)
VH: QVTLKESGPGILQPSQTLSLTCSFSGFSLSTSGMGVGWIRQPSGKGLEWLAHIWWDDVKRYNPALKSRLTISKDTSSSQVFLKIASVDTTDTASYYCSRIARSPTGFAYWGQGTL
VL: QIVLTQSPVIMSASPGEKVTMTCSASSSVSYMYWYQQKPGSSPRLLIYDTSNLASGVPVRFSGSGSGTSYSLTISRMEAEDAATYYCQQWSSYPPALTFGAGTKLELK
B10: humanized antibody hu64 (antibody, V domains shown)
VH: QVQLVQSGAEVKKPGSSVKVSCKASGYTFTSYNMLWVRQAPGQGLEWMGVIFPGNGDTSYNPKFKGRVTLTADKSSSTAYMELSSLRSEDTAVYYCARDGYPSMDYWGQGTLVTVSS
VL: DTQLTQSPSFLSASVGDRVTITCITSTDIDDDMNWYQQKPGKAPKLLISEGNSLRPGVPSRFSSSGSGTEFTLTISSLQPEDFATYYCLQFNNMPLTFGQGTKLEIKR
B11: humanized antibody hu52 (antibody, V domains shown)
VH: B10 VH with S16A, G44R
VL: B10 VL
B12: humanized antibody hu50 (antibody, V domains shown)
VH: B10 VH with S16A, G44R
VL: B10 VL with T2I, L4M, F10S, L11V, S64G, E70D
B13: humanized antibody hu2 (antibody, V domains shown)
VH: EVQLLQSAAEVKRPGESLRISCKTSGYTFTEYTMHWVRQMPGKELEWMGVIDPSNGDTSYNQKFKGHVTISADKSSSTAYLQWSSLKASDAAMYYCSSTTGPWFASWGQGTLVTVSS
VL: DIQMTQSPSSLSASVGDRVTITCRASQDISNYLNWYQQKPGKAPKLLIYYKSRLHSGVPSRFSGSGSGTDFTLTISSLQPEDFATYYCQQVHTLPPTFGQGTKLEIKR
B14: humanized antibody hu3 (antibody, V domains shown)
VH: B13 VH
VL: EIVMTQSPPTLSLSPGERVTLSCRASQDISNYLNWYQQKPGQAPRLLIYYKSRLHSGIPARFSGSGSGTDFTLTISSLQPEDFAVYYCQQVHTLPPTFGQGTKLEIKR

The target of the first experiment is T1, human DKK1 antigen (Sino Biological, 10170-H08H) (human, UniProt O94907 32-266).
T1 construct: also called huDKK1; hDKK1
T1 sequence (looked up): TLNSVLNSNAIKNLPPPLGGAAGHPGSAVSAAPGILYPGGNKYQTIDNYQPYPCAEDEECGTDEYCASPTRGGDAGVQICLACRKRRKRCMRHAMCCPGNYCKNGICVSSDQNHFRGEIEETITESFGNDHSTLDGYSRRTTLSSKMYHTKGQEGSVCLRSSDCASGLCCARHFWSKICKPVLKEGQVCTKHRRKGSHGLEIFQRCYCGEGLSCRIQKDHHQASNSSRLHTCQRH
The experiment in a line: competitive ELISA against LRP6 for DKK1. In general terms: An ELISA detects its analyte on a solid surface through an enzyme-linked reagent.
Turning to B1, the binding result was “binds”.
On to B2, for which the binding result was “binds”.
As for B3, the binding result is “binds”.
On the same count and under the same terms, as for B4, the entry is “binds”.
On the same count and under the same terms, the same measure for B5: “binds”.

A further experiment concerns the target T2, human DKK1 antigen (Sino Biological, 10170-H08H) (human, UniProt O94907 32-266).
T2 chain: T1 sequence (looked up)
Kind of experiment: ELISA blocking of DKK1-LRP6.
For B1, the midpoint of inhibition, the IC50, lay at 0.459 µg/mL.
Still for that read-out and setting: the same measure for B2: 0.529 µg/mL; for B3: 0.892 µg/mL.
In turn, B4 returned an IC50 of around 10.1 µg/mL.
Still for that read-out and setting: as for B6, the figure is 1.1 µg/mL.

The target of another experiment is T2, human DKK1 antigen (Sino Biological, …). Kind of experiment: ELISA blocking of DKK1-LRP6. This is another data set of the same source.
In turn, B7 showed an IC50 of 1.79 µg/mL.
The same measure, in the same setting: the same measure for B8: 1.43 µg/mL.
As to B9, the IC50 was around 0.246 µg/mL.

The next experiment shares this target. The experiment in a line: ELISA binding.
As to B10, the EC50 was 0.0222 µg/mL.
For B11, the EC50 was 0.0238 µg/mL.
The same measure, in the same setting: as for B12, the figure is 0.0234 µg/mL; as for B13, 0.01 µg/mL.
The molecule B14 gave an EC50 of 0.0138 µg/mL.

The target is the same in a further experiment. Kind of experiment: ELISA blocking of DKK1-LRP6. The source holds these as a separate data set.
For B10, half-maximal inhibition (IC50) was put at 0.176 µg/mL.
Still for that read-out and setting: the same measure for B11: 0.155 µg/mL; for B12: 0.239 µg/mL; for B13: 0.193 µg/mL.
Molecule B14 showed an IC50 of 0.169 µg/mL.
